Assay results reported in publication PMC11988184.

B1: c-Myc tagged MIRO1 (mitochondrial rho GTPase 1), wild type [not stated] / MCU (mitochondrial Ca2+ uniporter), endogenous in HEK cells [human (endogenous in HEK)] (parent)
chain 1: MKKDVRILLVGEPRVGKTSLIMSLVSEEFPEEVPPRAEEITIPADVTPERVPTHIVDYSEAEQSDEQLHQEISQANVICIVYAVNNKHSIDKVTSRWIPLINERTDKDSRLPLILVGNKSDLVEYSSMETILPIMNQYTEIETCVECSAKNLKNISELFYYAQKAVLHPTGPLYCPEEKEMKPACIKALTRIFKISDQDNDGTLNDAELNFFQRICFNTPLAPQALEDVKNVVRKHISDGVADSGLTLKGFLFLHTLFIQRGRHETTWTVLRRFGYDDDLDLTPEYLFPLLKIPPDCTTELNHHAYLFLQSTFDKHDLDRDCALSPDELKDLFKVFPYIPWGPDVNNTVCTNERGWITYQGFLSQWTLTTYLDVQRCLEYLGYLGYSILTEQESQASAVTVTRDKKIDLQKKQTQRNVFRCNVIGVKNCGKSGVLQALLGRNLMRQKKIREDHKSYYAINTVYVYGQEKYLLLHDISESEFLTEAEIICDVVCLVYDVSNPKSFEYCARIFKQHFMDSRIPCLIVAAKSDLHEVKQEYSISPTDFCRKHKMPPPQAFTCNTADAPSKDIFVKLTTMAMYPHVTQADLKSSTFWLRASFGATVFAVLGFAMYKALLKQR
chain 2: VHQRIASWQNLGAVYCSTVVPSDDVTVVYQNGLPVISVRLPSRRERCQFTLKPISDSVGVFLRQLQEEDRGIDRVAIYSPDGVRVAASTGIDLLLLDDFKLVINDLTYHVRPPKRDLLSHENAATLNDVKTLVQQLYTTLCIEQHQLNKERELIERLEDLKEQLAPLEKVRIEISRKAEKRTTLVLWGGLAYMATQFGILARLTWWEYSWDIMEPVTYFITYGSAMAMYAYFVMTRQEYVYPEARDRQYLLFFHKGAKKSRFDLEKYNQLKDAIAQAEMDLKRLRDPLQVHLPLRQIGEKD

Variants of: B1
Assay: co-immunoprecipitation (anti-Myc IP, immunoblot quantification)
Conditions: with MCU (mitochondrial Ca2+ uniporter), c-Myc-tagged MIRO1 constructs expressed in HEK cells for 24 h, n = 6 independent experiments, parent: 0.26, read off a plot

response	Variant
0.065 AU	chain 1 E208K E328K
0.36 AU	chain 1 S432N
